These results are taken from patent publication US9566335 (GOVERNING COUNCIL OF THE UNIVERSITY OF TORONTO, dated 2017).

First the molecules themselves.
B1: non-biotinylated peptide XSDGMFTAGSLI, X = W (peptide)
peptide: WSDGMFTAGSLI
notes: also called Wpep
B2: non-biotinylated peptide XSDGMFTAGSLI, X = K (peptide)
peptide: KSDGMFTAGSLI
B3: non-biotinylated peptide XSDGMFTAGSLI, X = I (peptide)
peptide: ISDGMFTAGSLI
B4: non-biotinylated peptide XSDGMFTAGSLI, X = Q (peptide)
peptide: QSDGMFTAGSLI
B5: non-biotinylated peptide XSDGMFTAGSLI, X = T (peptide)
peptide: TSDGMFTAGSLI
B6: non-biotinylated peptide XSDGMFTAGSLI, X = S (peptide)
peptide: SSDGMFTAGSLI
B7: non-biotinylated peptide XSDGMFTAGSLI, X = Y (peptide)
peptide: YSDGMFTAGSLI
B8: non-biotinylated peptide XSDGMFTAGSLI, X = C (peptide)
peptide: CSDGMFTAGSLI
B9: non-biotinylated peptide XSDGMFTAGSLI, X = N (peptide)
peptide: NSDGMFTAGSLI
B10: non-biotinylated peptide XSDGMFTAGSLI, X = E (peptide)
peptide: ESDGMFTAGSLI
B11: non-biotinylated peptide XSDGMFTAGSLI, X = L (peptide)
peptide: LSDGMFTAGSLI
B12: non-biotinylated peptide XSDGMFTAGSLI, X = R (peptide)
peptide: RSDGMFTAGSLI
B13: non-biotinylated peptide XSDGMFTAGSLI, X = A (peptide)
peptide: ASDGMFTAGSLI
B14: non-biotinylated peptide XSDGMFTAGSLI, X = F (peptide)
peptide: FSDGMFTAGSLI
B15: non-biotinylated peptide XSDGMFTAGSLI, X = V (peptide)
peptide: VSDGMFTAGSLI
B16: non-biotinylated peptide XSDGMFTAGSLI, X = G (peptide)
peptide: GSDGMFTAGSLI
B17: non-biotinylated peptide XSDGMFTAGSLI, X = P (peptide)
peptide: PSDGMFTAGSLI
B18: non-biotinylated peptide XSDGMFTAGSLI, X = H (peptide)
peptide: HSDGMFTAGSLI
B19: non-biotinylated peptide XSDGMFTAGSLI, X = D (peptide)
peptide: DSDGMFTAGSLI
B20: non-biotinylated peptide XSDGMFTAGSLI, X = M (peptide)
peptide: MSDGMFTAGSLI
B21: Phage displayed wild-type E. coli ClpS (truncated wildtype ClpS polypeptide, FLAG-tagged, fused to phage coat protein p3) (other)
chain: KPPSMYKVILVNDDYTPMEFVIDVLQKFFSYDVERATQLMLAVHYQGKAICGVFTAEVAETKVAMVNKYARENEHPLLCTLEKA
notes: also called ClpS Wt; ClpS WT; not shown: N-terminal FLAG tag
B22: ClpS Variant 1 (Trp-binding ClpS variant), phage displayed (designed binder)
chain: B21 chain with M18A, V21C, M40C, V43A, P76A, L77A
notes: tested as phage; also called ClpS variant W1; W1; not shown: N-terminal FLAG tag of the phage display construct; C-terminal phage coat protein p3 of the phage display construct
B23: biotinylated peptide X-SDGMFTAGSLIGK(biotin), X = L (peptide)
peptide: LSDGMFTAGSLIGK(Biotin)
notes: also called Leu peptide
B24: biotinylated peptide X-SDGMFTAGSLIGK(biotin), X = W (peptide)
peptide: WSDGMFTAGSLIGK(Biotin)
notes: also called Wpep; Trp peptide

Assay [1] addresses B22. Put plainly: competitive phage ELISA: W1 phage equilibrated with free peptide, then on immobilised Wpep(biotin).
The target of assay [2] is B22. As to the kind of experiment: competitive phage ELISA against immobilised Wpep. On the technique in general: An ELISA detects its analyte on a solid surface through an enzyme-linked reagent.
The target in assay [3] is B22. Put plainly: competitive phage ELISA, 10 uM free peptide against immobilised Wpep.
The next assay deals with T1, streptavidin (UniProt P22629 37-163).
T1 construct: also called SA
As to the kind of experiment: phage ELISA, FIG. 6B.

In a further assay the target is T2, bovine serum albumin (bovine, UniProt P02769 25-607).
T2 construct: also called BSA
As to the kind of experiment: phage ELISA, FIG. 6B.

The target in assay [4] is B23. As to the kind of experiment: phage ELISA.
Assay [5] deals with B21. Put plainly: phage ELISA.

What is called IC50 is the midpoint of a concentration-inhibition curve.

Positions count from the first letter of the chain named. No end group written: not given here. *: point of attachment. Biotin = O=C1N[C@H]2[C@H](CS[C@H]2CCCCC(=O)*)N1

T1 sequence (P22629 37-163 limits assumed): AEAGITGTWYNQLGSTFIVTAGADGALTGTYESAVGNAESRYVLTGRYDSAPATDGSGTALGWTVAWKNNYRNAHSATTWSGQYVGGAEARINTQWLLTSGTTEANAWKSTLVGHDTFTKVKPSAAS
T2 sequence (P02769 25-607 limits assumed): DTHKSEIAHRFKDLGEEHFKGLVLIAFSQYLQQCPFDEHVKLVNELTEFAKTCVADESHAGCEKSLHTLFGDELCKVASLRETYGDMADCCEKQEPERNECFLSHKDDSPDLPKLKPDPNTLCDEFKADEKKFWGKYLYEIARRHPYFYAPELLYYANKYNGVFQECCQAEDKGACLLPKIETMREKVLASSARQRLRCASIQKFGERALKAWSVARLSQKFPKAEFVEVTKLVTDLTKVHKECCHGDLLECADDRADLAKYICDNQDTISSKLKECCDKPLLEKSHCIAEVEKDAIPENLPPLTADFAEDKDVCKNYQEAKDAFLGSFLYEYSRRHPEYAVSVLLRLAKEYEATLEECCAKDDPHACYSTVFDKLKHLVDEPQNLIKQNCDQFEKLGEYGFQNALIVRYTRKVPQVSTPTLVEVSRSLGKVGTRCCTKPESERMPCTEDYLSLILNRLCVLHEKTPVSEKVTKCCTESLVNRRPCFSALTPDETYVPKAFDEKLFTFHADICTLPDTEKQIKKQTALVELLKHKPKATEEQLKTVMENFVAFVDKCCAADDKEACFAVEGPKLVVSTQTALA

As for B1, in assay [1], the IC50 was roughly 1000 nM and the “binding remaining at 10 uM competitor (relative to no competitor)” value came out at 11%. B2: the binding result in assay [2] is “no binding (tested: 10 uM)”. B3: the binding result in assay [3] is on record as “binds”.

As to B4, the binding result in assay [2] was “no binding (tested: 10 uM)”. On the same count and under the same terms, the same measure for B5: “no binding (tested: 10 uM)”; for B6: “no binding (tested: 10 uM)”. On to B7, for which the binding result in assay [3] is “binds”. Turning to B8, in assay [2], the binding result is listed as “no binding (tested: 10 uM)”.

For B9, the binding result in assay [2] was “no binding (tested: 10 uM)”. Still for that read-out and setting: then B10, with “no binding (tested: 10 uM)”.

With B11, in assay [3], the binding result was “binds”.

Regarding B12, in assay [2], the binding result is given as “no binding (tested: 10 uM)”.

For B13, the binding result in assay [2] is given as “no binding (tested: 10 uM)”. With B14, in assay [3], the binding result is on record as “binds”. On to B15, for which, in assay [2], the binding result is given as “no binding (tested: 10 uM)”. For the molecule B16, the binding result in assay [3] was “binds”. Consider B17, for which the binding result in assay [2] is “no binding (tested: 10 uM)”. Same read-out and setting: the same measure for B18: “no binding (tested: 10 uM)”; for B19: “no binding (tested: 10 uM)”. Same read-out and setting: the same measure for B20: “no binding (tested: 10 uM)”. For B21, the binding result with streptavidin and with bovine serum albumin was “no binding” throughout. As to B22, the binding result in assay [4] was “no binding”. Consider B23, for which the binding result in assay [5] is “binds”.

Consider B24, for which, in assay [5], the binding result is recorded as “binds”.
